Measurements from patent US20110318360A1.

B1: mAb 11.31 (PGN 632) (antibody, V domains shown)
VH: QVQLQESGPGLVKPSGTLSLTCAVSGGSISSSNWWSWVRQPPGKGLEWIGEIYHSGSTNYNPSLKSRVTISVDKSKNQFSLKLSSVTAADTAVYYCARSRFRSWLVKRRYVYFDYWGQGTLVTVSS
VL: SSELSQDPAVSVALGQTVRITCQGDSLRSYYASWYQQKPGQAPVLVIYGKNNRPSGIPDRFSGSSSGNTASLTITGAQAEDEADYYCNSRDSSGNVVFGGGTKVTVL

Columns and labels:
[1] = target: HIV-1 B.ADA Env on Aldrithiol-2 inactivated virions (HIV-1)
[2] = target: HIV-1 B.MN Env on Aldrithiol-2 inactivated virions (HIV-1)
[3] = target: HIV-1 B.AD8 Env on Aldrithiol-2 inactivated virions (HIV-1)
[4] = target: Env of HIV-BaL.LucR.T2A.ecto/hPBMC (HIV-1)
[5] = target: HIV-1 C.DU123 Env (HIV-1)

Row | Molecule | IC90, inhibition of fusion (syncytia) induced by Aldrithiol-2 inactivated HIV-1 in SUP-T1 cells [1] [µg/mL] | IC90, inhibition of fusion (syncytia) induced by Aldrithiol-2 inactivated HIV-1 in SUP-T1 cells [2] [µg/mL] | IC90, inhibition of fusion (syncytia) induced by Aldrithiol-2 inactivated HIV-1 in SUP-T1 cells [3] [µg/mL] | mean IC80, inhibition of HIV-1 infection of PBMC from 75 donors [4] [µg/mL] | IC50, neutralization of HIV-1 Env pseudovirus in TZM-bl cells (HIV-1 B.PVO Env (HIV-1)) [µg/mL] | IC50, neutralization of HIV-1 Env pseudovirus in TZM-bl cells (HIV-1 B.6535 Env (HIV-1)) [µg/mL] | IC50, neutralization of HIV-1 Env pseudovirus in TZM-bl cells [5] [µg/mL]
1 | 2F5 (antibody) | < 1.2 | < 1.2 | 3.4 |  |  |  | 
2 | 4E10 (antibody) | < 1.2 | < 1.2 | 10 | 20.4 | 2.2 | < 2 | < 2
3 | Bavituximab (antibody) |  |  |  |  | > 50 | > 50 | > 50
4 | IgG1b12 (antibody) |  |  |  | 9.2 |  |  | 
5 | B1 |  |  |  |  | > 50 | > 50 | > 50
